Measurements as given in patent US20090170750A1 (Novo Nordisk, published 2009).
Bridges are numbered along the chain shown (N, C = ends). Where no end group is shown, it is not given here.

B1: single-chain insulin PAK 1861, connecting peptide VGLGKGPGAGK [A18Q_A21G] (ligand)
chain: FVNQHLCGSHLVEALYLVCGERGFFYTPKVGLGKGPGAGKGIVEQCCTSICSLYQLEQYCG
B2: B(1-29)-B27E-B29A-TGLGKGQ-A(1-21)-A18Q Human insulin (PAK1845) (ligand)
chain: FVNQHLCGSHLVEALYLVCGERGFFYEPATGLGKGQGIVEQCCTSICSLYQLEQYCN
modifications: disulfide 19-56, 42-47, 7-43
B3: single-chain insulin PAK 1735, connecting peptide VGRSSGK [A21G] (ligand)
chain: FVNQHLCGSHLVEALYLVCGERGFFYTPKVGRSSGKGIVEQCCTSICSLYQLENYCG
modifications: disulfide 19-56, 42-47, 7-43
B4: B(1-29)-B29A-TGLGKGQ-A(1-21)-A18Q Human insulin (PAK1837) (ligand)
chain: FVNQHLCGSHLVEALYLVCGERGFFYTPATGLGKGQGIVEQCCTSICSLYQLEQYCN
modifications: disulfide 19-56, 42-47, 7-43
B5: single-chain insulin PAK 1873, connecting peptide KGLSSGQ [B29A_A18Q] (ligand)
chain: FVNQHLCGSHLVEALYLVCGERGFFYTPAKGLSSGQGIVEQCCTSICSLYQLEQYCN
modifications: disulfide 19-56, 42-47, 7-43
B6: single-chain insulin PAK 1896, connecting peptide VGLSSGQ [B29A_A18Q_A22K] (ligand)
chain: FVNQHLCGSHLVEALYLVCGERGFFYTPAVGLSSGQGIVEQCCTSICSLYQLEQYCNK
modifications: disulfide 19-56, 42-47, 7-43

How the values were obtained:
[1] = target: human IGF-1 receptor (human) (UniProt P08069); test: competition with 125I-IGF-1 (SPA)
[2] = target: purified recombinant human insulin receptor-exon 11 (human) (UniProt P06213); test: competition with 125I-insulin (SPA)
[3] = target: T1, purified recombinant human insulin receptor-exon 11 (human, UniProt P06213-2 28-1370, limits assumed); test: competition with 125I-insulin (SPA)
T1 construct: also called IR
Procedure: A total of 100 μl was then added and a dilution series is made from appropriate samples. To the dilution series was then added 100 μl of reagent mix and the samples were incubated for 16 hours while gently shaken. The phases were the then separated by centrifugation for 1 min and the plates counted in a Topcounter. The binding data were fitted using the nonlinear regression algorithm in the GraphPad Prism 2.01 (GraphPad Software, San Diego, Calif.).

Row | Molecule | Human IGF-1 receptor binding relative to human insulin [1] | IR, binding relative to human insulin [3] | further results
1 | single-chain insulin with connecting peptide RGSSGK (SEQ ID NO:114), no PAK number printed (from UniProt P01308 25-53; P01308 90-110) (ligand) | 0.5% |  | IR, binding relative to human insulin [2]: 54%
2 | single-chain insulin PAK 1688007, connecting peptide VGYSSGK (from UniProt P01308 25-53; P01308 90-110) (ligand) | 0.2% |  | 
3 | single-chain insulin B(1-29)-TRLSQGR-A(1-21) (from UniProt P01308 25-53; P01308 90-110) (ligand) |  |  | Human IGF-1 receptor binding [1]: 0.05%
4 | single-chain insulin with connecting peptide VGHSSGK (SEQ ID NO:108), no PAK number printed (from UniProt P01308 25-53; P01308 90-110) (ligand) | 0.15% |  | 
5 | B1 |  | 36% | 
6 | B2 |  | 20% | 
7 | B3 |  | 143% | 
8 | B4 |  | 71% | 
9 | B5 |  | 60% | 
10 | B6 |  | 38% | 
